Tests used:
[1] = SAX-HPLC analysis of exhaustive heparan sulfate digests; format: biochemical; settings: for catalytic activity in overnight heparan sulfate digests: SAX-HPLC, overnight 37° C.
Protocol: Exhaustive digests of 3 mg/ml heparan sulfate in 50 mM sodium phosphate buffer, pH 7.6 were performed overnight at 37° C. for each of the mutants (20 μg protein). The reactions were loaded onto a Spherisorb S5 SAX column (Waters) and eluted using a linear gradient of 0.2-1.0 M NaCl, pH 3.5. The products were monitored at 232 nm and each of the major peaks was collected. To determine their composition, the collected fractions were analyzed by capillary electrophoresis and identified by comigration with known standards.
As a control, the r-heparinase III construct without its putative signal sequence was expressed. The concentration and purity of all recombinant enzyme preparations were determined using SDS-PAGE. The recombinantly expressed heparinase III was also compared to the heparinase III isolated from F. heparinum to ensure that they were the same molecular weight. Heparinase III (20 μg/mL) was incubated with a 4 mg/mL of heparan sulfate overnight at 37° C. The reaction was loaded onto a SAX column and the saccharide products were eluted using a gradient of 0.2-1.0 M NaCl, pH 3.5 over 30 min. and monitored at 232 nm. (A) Heparan sulfate digested with heparinase III from F. heparinum. (B) Heparan sulfate digested with recombinant heparinase III. (C) Heparan sulfate digested with the H295A mutant enzyme. (D) Heparan sulfate digested with the H510A mutant enzyme. (E) Heparan sulfate digested with the H105A mutant enzyme.

[2] = Heparinase III kinetic assay of r-heparinase III and histidine mutants; format: biochemical; settings: heparan sulfate; for Km: calculated assuming a molecular weight of 15 kDa
Protocol: The activity of heparinase III was measured using a UV 232 nm assay similar to those reported for heparinase I and heparinase II (Godavarti, R., Cooney, C. L., Langer, R., and Sasisekharan, R. (1996) Biochemistry 35, 6846-52; Shriver, Z., Hu, Y., and Sasisekharan, R. (1998) J. Biol. Chem. 273, 10160-67; and Lohse, D. and Linhardt, R. J. (1992) J. Biol. Chem. 267, 781-87). Briefly, the increase in absorbance at 232 nm as a function of time was monitored under saturating substrate conditions. All assays were performed with heparan sulfate at a concentration of 2 mg/ml in 50 mM sodium phosphate, pH 7.6. The temperature for enzymatic activity measurements was kept constant at 35° C.
In parallel to the mapping studies and to confirm the results of the chemical modification experiments, each of the thirteen histidine residues present in heparinase III was mutated to alanine. The recombinant heparinase III mutant proteins were expressed, purified, and assessed for enzymatic activity towards heparan sulfate (Table 2).

| Molecule | heparan sulfate degradation product profile compared to wild type heparinase III ([1]; SAX-HPLC and capillary electrophoresis) | kcat [2] [s⁻¹] | Km [2] [µM] | catalytic activity in overnight heparan sulfate digests [1] |
| --- | --- | --- | --- | --- |
| wild-type r-heparinase III: recombinantly expressed heparinase III construct without its putative signal sequence, His-tagged, from E. coli (protein, UniProt Q59289 25-659, looked up, His tag; no signal sequence) Heparin-sulfate lyase: QSSSITRKDFDHINLEYSGLEKVNKAVAAGNYDDAAKALLAYYREKSKAREPDFSNAEKPADIRQPIDKVTREMADKALVHQFQPHKGYGYFDYGKDINWQMWPVKDNEVRWQLHRVKWWQAMALVYHATGDEKYAREWVYQYSDWARKNPLGLSQDNDKFVWRPLEVSDRVQSLPPTFSLFVNSPAFTPAFLMEFLNSYHQQADYLSTHYAEQGNHRLFEAQRNLFAGVSFPEFKDSPRWRQTGISVLNTEIKKQVYADGMQFELSPIYHVAAIDIFLKAYGSAKRVNLEKEFPQSYVQTVENMIMALISISLPDYNTPMFGDSWITDKNFRMAQFASWARVFPANQAIKYFATDGKQGKAPNFLSKALSNAGFYTFRSGWDKNATVMVLKASPPGEFHAQPDNGTFELFIKGRNFTPDAGVFVYSGDEAIMKLRNWYRQTRIHSTLTLDNQNMVITKARQNKWETGNNLDVLTYTNPSYPNLDHQRSVLFINKKYFLVIDRAIGEATGNLGVHWQLKEDSNPVFDKTKNRVYTTYRDGNNLMIQSLNADRTSLNEEEGKVSYVYNKELKRPAFVFEKPKKNAGTQNFVSIVYPYDGQKAPEISIRENKGNDFEKGKLNLTLTINGKQQLVLVP | identical product profile | 78 | 80 | – |
| H110A: recombinant heparinase III with histidine 110 mutated to alanine (protein) MTTKIFKRIIVFAVIALSSGNILAQSSSITRKDFDHINLEYSGLEKVNKAVAAGNYDDAAKALLAYYREKSKAREPDFSNAEKPADIRQPIDKVTREMADKALVHQFQPAKGYGYFDYGKDINWQMWPVKDNEVRWQLHRVKWWQAMALVYHATGDEKYAREWVYQYSDWARKNPLGLSQDNDKFVWRPLEVSDRVQSLPPTFSLFVNSPAFTPAFLMEFLNSYHQQADYLSTHYAEQGNHRLFEAQRNLFAGVSFPEFKDSPRWRQTGISVLNTEIKKQVYADGMQFELSPIYHVAAIDIFLKAYGSAKRVNLEKEFPQSYVQTVENMIMALISISLPDYNTPMFGDSWITDKNFRMAQFASWARVFPANQAIKYFATDGKQGKAPNFLSKALSNAGFYTFRSGWDKNATVMVLKASPPGEFHAQPDNGTFELFIKGRNFTPDAGVFVYSGDEAIMKLRNWYRQTRIHSTLTLDNQNMVITKARQNKWETGNNLDVLTYTNPSYPNLDHQRSVLFINKKYFLVIDRAIGEATGNLGVHWQLKEDSNPVFDKTKNRVYTTYRDGNNLMIQSLNADRTSLNEEEGKVSYVYNKELKRPAFVFEKPKKNAGTQNFVSIVYPYDGQKAPEISIRENKGNDFEKGKLNLTLTINGKQQLVLVP | – | 37 | 9 | retain their catalytic activity |
| H139A: recombinant heparinase III with histidine 139 mutated to alanine (protein) MTTKIFKRIIVFAVIALSSGNILAQSSSITRKDFDHINLEYSGLEKVNKAVAAGNYDDAAKALLAYYREKSKAREPDFSNAEKPADIRQPIDKVTREMADKALVHQFQPHKGYGYFDYGKDINWQMWPVKDNEVRWQLARVKWWQAMALVYHATGDEKYAREWVYQYSDWARKNPLGLSQDNDKFVWRPLEVSDRVQSLPPTFSLFVNSPAFTPAFLMEFLNSYHQQADYLSTHYAEQGNHRLFEAQRNLFAGVSFPEFKDSPRWRQTGISVLNTEIKKQVYADGMQFELSPIYHVAAIDIFLKAYGSAKRVNLEKEFPQSYVQTVENMIMALISISLPDYNTPMFGDSWITDKNFRMAQFASWARVFPANQAIKYFATDGKQGKAPNFLSKALSNAGFYTFRSGWDKNATVMVLKASPPGEFHAQPDNGTFELFIKGRNFTPDAGVFVYSGDEAIMKLRNWYRQTRIHSTLTLDNQNMVITKARQNKWETGNNLDVLTYTNPSYPNLDHQRSVLFINKKYFLVIDRAIGEATGNLGVHWQLKEDSNPVFDKTKNRVYTTYRDGNNLMIQSLNADRTSLNEEEGKVSYVYNKELKRPAFVFEKPKKNAGTQNFVSIVYPYDGQKAPEISIRENKGNDFEKGKLNLTLTINGKQQLVLVP | – | 68 | 191 | retain their catalytic activity |
